The target of this assay is T1, FcγRIa extracellular domain with C-terminal His tag (human, UniProt P12314 16-292).
T1 construct: extracellular domain; also called FcgRI; CD64; not shown: His tag at the C terminus
Briefly: SPR Biacore, relative FcγRIa binding vs GpH7-B3/GpL16-k0. In general terms: SPR reads the build-up and loss of mass on a sensor chip optically.

T1 sequence (P12314 16-292): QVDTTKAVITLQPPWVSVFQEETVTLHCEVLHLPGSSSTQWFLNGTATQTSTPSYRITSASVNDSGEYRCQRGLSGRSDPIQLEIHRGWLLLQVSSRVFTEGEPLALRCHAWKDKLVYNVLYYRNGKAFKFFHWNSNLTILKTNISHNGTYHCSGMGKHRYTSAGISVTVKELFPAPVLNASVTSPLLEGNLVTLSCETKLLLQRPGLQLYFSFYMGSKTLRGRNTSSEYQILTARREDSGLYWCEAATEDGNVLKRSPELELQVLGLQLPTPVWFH

B1: GpH7-B3 variant S324_16H/GpL16-k0 (antibody, human IgG1, kappa)
heavy: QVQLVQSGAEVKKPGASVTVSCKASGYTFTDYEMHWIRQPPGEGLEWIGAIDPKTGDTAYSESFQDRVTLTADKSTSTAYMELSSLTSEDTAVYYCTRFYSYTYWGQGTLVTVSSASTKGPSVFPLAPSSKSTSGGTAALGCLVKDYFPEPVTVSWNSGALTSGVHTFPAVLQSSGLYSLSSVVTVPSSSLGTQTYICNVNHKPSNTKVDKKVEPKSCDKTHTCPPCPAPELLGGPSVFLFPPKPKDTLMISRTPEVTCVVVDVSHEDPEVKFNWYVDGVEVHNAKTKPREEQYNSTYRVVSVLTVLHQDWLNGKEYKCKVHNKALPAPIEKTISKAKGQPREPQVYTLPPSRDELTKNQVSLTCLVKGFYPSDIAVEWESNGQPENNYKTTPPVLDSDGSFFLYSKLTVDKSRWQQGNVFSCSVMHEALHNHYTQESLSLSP
light: DIVMTQSPLSLPVTPGEPASISCQASESLVHSNRNTYLHWYLQKPGQSPQLLIYKVSNRFSGVPDRFSGSGSGTDFTLKISRVEAEDVGVYYCSQNTHVPPTFGQGTKVEIERTVAAPSVFIFPPSDEQLKSGTASVVCLLNNFYPREAKVQWKVDNALQSGNSQESVTEQDSKDSTYSLSSTLTLSKADYEKHKVYACEVTHQGLSSPVTKSFNRGEC
notes: mutation in both H chains; also called Ho Ab S324_16H; S324H
Regarding B1, the Ho/Con_1a is 111 % of HoCon Ab (=100).

B2: GpH7-B3 variant S337_12R/GpL16-k0 (antibody, human IgG1, kappa)
heavy: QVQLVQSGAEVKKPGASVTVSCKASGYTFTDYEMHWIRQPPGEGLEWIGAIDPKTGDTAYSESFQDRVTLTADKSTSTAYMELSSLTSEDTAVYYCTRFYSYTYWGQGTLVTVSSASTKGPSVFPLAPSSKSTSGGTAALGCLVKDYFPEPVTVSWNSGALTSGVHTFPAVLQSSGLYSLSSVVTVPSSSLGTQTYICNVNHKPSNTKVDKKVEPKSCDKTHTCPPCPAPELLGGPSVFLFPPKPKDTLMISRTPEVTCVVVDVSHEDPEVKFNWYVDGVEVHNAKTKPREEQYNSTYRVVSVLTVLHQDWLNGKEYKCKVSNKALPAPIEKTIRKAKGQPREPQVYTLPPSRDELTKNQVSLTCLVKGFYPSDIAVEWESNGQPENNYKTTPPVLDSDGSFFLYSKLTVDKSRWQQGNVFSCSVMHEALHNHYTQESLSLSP
light: DIVMTQSPLSLPVTPGEPASISCQASESLVHSNRNTYLHWYLQKPGQSPQLLIYKVSNRFSGVPDRFSGSGSGTDFTLKISRVEAEDVGVYYCSQNTHVPPTFGQGTKVEIERTVAAPSVFIFPPSDEQLKSGTASVVCLLNNFYPREAKVQWKVDNALQSGNSQESVTEQDSKDSTYSLSSTLTLSKADYEKHKVYACEVTHQGLSSPVTKSFNRGEC
notes: mutation in both H chains; also called Ho Ab S337_12R; S337R
With B2, the Ho/Con_1a is 105 % of HoCon Ab (=100).

B3: GpH7-B3 variant S337_01G/GpL16-k0 (antibody, human IgG1, kappa)
heavy: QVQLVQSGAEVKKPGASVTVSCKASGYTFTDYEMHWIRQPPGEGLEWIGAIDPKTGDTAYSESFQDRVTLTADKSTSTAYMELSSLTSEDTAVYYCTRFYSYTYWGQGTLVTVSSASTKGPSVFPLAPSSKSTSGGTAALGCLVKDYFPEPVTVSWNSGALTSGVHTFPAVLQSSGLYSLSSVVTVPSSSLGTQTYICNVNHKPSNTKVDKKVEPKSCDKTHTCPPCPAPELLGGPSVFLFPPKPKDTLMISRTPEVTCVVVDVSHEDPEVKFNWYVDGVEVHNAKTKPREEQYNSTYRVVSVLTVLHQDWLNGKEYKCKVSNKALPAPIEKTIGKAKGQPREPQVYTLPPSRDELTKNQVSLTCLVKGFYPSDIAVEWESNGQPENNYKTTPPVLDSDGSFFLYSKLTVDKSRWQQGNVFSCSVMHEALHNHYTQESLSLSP
light: DIVMTQSPLSLPVTPGEPASISCQASESLVHSNRNTYLHWYLQKPGQSPQLLIYKVSNRFSGVPDRFSGSGSGTDFTLKISRVEAEDVGVYYCSQNTHVPPTFGQGTKVEIERTVAAPSVFIFPPSDEQLKSGTASVVCLLNNFYPREAKVQWKVDNALQSGNSQESVTEQDSKDSTYSLSSTLTLSKADYEKHKVYACEVTHQGLSSPVTKSFNRGEC
notes: mutation in both H chains; also called Ho Ab S337_01G; S337G
As to B3, the Ho/Con_1a was 102 % of HoCon Ab (=100).

B4: GpH7-B3 variant S337_02A/GpL16-k0 (antibody, human IgG1, kappa)
heavy: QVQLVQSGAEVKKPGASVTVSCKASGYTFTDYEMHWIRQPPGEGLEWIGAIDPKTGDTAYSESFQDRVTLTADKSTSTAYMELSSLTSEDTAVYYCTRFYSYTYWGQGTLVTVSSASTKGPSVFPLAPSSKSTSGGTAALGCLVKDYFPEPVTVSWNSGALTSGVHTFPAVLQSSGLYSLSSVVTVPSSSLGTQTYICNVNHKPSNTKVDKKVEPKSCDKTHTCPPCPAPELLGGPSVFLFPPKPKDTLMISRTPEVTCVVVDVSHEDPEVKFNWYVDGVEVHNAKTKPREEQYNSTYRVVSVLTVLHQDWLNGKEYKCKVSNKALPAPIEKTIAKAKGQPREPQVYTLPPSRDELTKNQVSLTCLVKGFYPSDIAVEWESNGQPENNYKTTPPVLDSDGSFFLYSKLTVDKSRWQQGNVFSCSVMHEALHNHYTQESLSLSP
light: DIVMTQSPLSLPVTPGEPASISCQASESLVHSNRNTYLHWYLQKPGQSPQLLIYKVSNRFSGVPDRFSGSGSGTDFTLKISRVEAEDVGVYYCSQNTHVPPTFGQGTKVEIERTVAAPSVFIFPPSDEQLKSGTASVVCLLNNFYPREAKVQWKVDNALQSGNSQESVTEQDSKDSTYSLSSTLTLSKADYEKHKVYACEVTHQGLSSPVTKSFNRGEC
notes: mutation in both H chains; also called Ho Ab S337_02A; S337A
As to B4, the Ho/Con_1a is 103 % of HoCon Ab (=100).

B5: GpH7-B3 variant S324_19Q/GpL16-k0 (antibody, human IgG1, kappa)
heavy: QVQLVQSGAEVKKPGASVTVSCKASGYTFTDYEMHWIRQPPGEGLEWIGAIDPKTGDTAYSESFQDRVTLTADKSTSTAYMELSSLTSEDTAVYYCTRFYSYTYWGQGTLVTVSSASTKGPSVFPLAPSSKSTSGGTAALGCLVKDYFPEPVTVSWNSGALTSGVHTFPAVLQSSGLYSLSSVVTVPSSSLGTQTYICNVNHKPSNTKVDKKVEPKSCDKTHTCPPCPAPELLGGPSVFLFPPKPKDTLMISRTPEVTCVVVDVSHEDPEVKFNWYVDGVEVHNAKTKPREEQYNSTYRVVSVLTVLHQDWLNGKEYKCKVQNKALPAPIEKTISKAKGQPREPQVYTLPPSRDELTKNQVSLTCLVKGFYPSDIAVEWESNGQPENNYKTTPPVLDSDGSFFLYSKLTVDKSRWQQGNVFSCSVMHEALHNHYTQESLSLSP
light: DIVMTQSPLSLPVTPGEPASISCQASESLVHSNRNTYLHWYLQKPGQSPQLLIYKVSNRFSGVPDRFSGSGSGTDFTLKISRVEAEDVGVYYCSQNTHVPPTFGQGTKVEIERTVAAPSVFIFPPSDEQLKSGTASVVCLLNNFYPREAKVQWKVDNALQSGNSQESVTEQDSKDSTYSLSSTLTLSKADYEKHKVYACEVTHQGLSSPVTKSFNRGEC
notes: mutation in both H chains; also called Ho Ab S324_19Q; S324Q
Turning to B5, the Ho/Con_1a is 111 % of HoCon Ab (=100).

B6: GpH7-B3 variant S337_15Y/GpL16-k0 (antibody, human IgG1, kappa)
heavy: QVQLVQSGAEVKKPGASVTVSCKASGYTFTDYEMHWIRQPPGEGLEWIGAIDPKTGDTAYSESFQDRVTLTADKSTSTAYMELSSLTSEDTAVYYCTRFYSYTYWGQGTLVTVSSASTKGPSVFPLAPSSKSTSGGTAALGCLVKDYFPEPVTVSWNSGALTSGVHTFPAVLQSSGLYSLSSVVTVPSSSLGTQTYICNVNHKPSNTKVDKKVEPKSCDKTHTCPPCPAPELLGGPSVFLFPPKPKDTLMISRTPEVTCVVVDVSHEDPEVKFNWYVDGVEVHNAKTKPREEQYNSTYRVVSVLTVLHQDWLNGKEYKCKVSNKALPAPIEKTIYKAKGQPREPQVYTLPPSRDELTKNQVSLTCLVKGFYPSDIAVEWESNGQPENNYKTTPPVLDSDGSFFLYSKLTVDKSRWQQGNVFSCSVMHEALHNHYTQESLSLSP
light: DIVMTQSPLSLPVTPGEPASISCQASESLVHSNRNTYLHWYLQKPGQSPQLLIYKVSNRFSGVPDRFSGSGSGTDFTLKISRVEAEDVGVYYCSQNTHVPPTFGQGTKVEIERTVAAPSVFIFPPSDEQLKSGTASVVCLLNNFYPREAKVQWKVDNALQSGNSQESVTEQDSKDSTYSLSSTLTLSKADYEKHKVYACEVTHQGLSSPVTKSFNRGEC
notes: mutation in both H chains; also called Ho Ab S337_15Y; S337Y
For B6, the Ho/Con_1a is 104 % of HoCon Ab (=100).

B7: GpH7-B3 variant S324_20W/GpL16-k0 (antibody, human IgG1, kappa)
heavy: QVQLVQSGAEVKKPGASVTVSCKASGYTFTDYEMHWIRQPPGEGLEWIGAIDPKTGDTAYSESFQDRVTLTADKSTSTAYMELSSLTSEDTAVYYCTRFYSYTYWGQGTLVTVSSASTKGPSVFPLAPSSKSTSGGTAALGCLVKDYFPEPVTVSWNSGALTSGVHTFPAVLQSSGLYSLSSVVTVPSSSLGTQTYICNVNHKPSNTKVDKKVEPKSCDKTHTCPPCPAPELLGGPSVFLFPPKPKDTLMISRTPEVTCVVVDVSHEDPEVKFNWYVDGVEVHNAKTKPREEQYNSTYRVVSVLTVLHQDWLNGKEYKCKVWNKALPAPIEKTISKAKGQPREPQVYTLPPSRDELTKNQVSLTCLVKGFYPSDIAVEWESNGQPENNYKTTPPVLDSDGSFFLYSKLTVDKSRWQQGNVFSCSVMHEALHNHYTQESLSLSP
light: DIVMTQSPLSLPVTPGEPASISCQASESLVHSNRNTYLHWYLQKPGQSPQLLIYKVSNRFSGVPDRFSGSGSGTDFTLKISRVEAEDVGVYYCSQNTHVPPTFGQGTKVEIERTVAAPSVFIFPPSDEQLKSGTASVVCLLNNFYPREAKVQWKVDNALQSGNSQESVTEQDSKDSTYSLSSTLTLSKADYEKHKVYACEVTHQGLSSPVTKSFNRGEC
notes: mutation in both H chains; also called Ho Ab S324_20W; S324W
In the case of B7, the Ho/Con_1a was 112 % of HoCon Ab (=100).

B8: GpH7-B3 variant S337_20W/GpL16-k0 (antibody, human IgG1, kappa)
heavy: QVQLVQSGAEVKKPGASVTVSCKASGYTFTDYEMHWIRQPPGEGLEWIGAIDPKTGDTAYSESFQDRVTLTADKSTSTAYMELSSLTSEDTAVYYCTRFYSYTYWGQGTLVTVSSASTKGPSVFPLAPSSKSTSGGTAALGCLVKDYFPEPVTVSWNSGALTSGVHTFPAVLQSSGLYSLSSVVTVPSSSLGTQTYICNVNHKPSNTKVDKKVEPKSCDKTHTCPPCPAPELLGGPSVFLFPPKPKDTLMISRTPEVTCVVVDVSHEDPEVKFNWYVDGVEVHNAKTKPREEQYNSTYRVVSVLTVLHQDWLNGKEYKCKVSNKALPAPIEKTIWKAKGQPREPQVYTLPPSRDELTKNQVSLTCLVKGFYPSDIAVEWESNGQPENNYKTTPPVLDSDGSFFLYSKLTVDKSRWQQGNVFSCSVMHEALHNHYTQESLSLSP
light: DIVMTQSPLSLPVTPGEPASISCQASESLVHSNRNTYLHWYLQKPGQSPQLLIYKVSNRFSGVPDRFSGSGSGTDFTLKISRVEAEDVGVYYCSQNTHVPPTFGQGTKVEIERTVAAPSVFIFPPSDEQLKSGTASVVCLLNNFYPREAKVQWKVDNALQSGNSQESVTEQDSKDSTYSLSSTLTLSKADYEKHKVYACEVTHQGLSSPVTKSFNRGEC
notes: mutation in both H chains; also called Ho Ab S337_20W; S337W
B8: the Ho/Con_1a was 104 % of HoCon Ab (=100).

B9: GpH7-B3 variant T335_07I/GpL16-k0 (antibody, human IgG1, kappa)
heavy: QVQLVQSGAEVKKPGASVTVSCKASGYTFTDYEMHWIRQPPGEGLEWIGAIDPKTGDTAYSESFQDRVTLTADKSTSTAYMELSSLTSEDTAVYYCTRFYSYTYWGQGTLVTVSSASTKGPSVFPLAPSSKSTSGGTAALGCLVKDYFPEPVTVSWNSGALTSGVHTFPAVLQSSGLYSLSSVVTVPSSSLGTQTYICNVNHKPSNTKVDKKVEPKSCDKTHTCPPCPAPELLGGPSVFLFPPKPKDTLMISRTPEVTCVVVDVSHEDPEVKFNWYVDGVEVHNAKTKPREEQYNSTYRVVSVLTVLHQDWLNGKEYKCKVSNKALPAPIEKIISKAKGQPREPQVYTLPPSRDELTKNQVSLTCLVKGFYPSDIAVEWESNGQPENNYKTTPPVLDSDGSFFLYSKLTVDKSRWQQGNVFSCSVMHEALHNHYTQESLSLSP
light: DIVMTQSPLSLPVTPGEPASISCQASESLVHSNRNTYLHWYLQKPGQSPQLLIYKVSNRFSGVPDRFSGSGSGTDFTLKISRVEAEDVGVYYCSQNTHVPPTFGQGTKVEIERTVAAPSVFIFPPSDEQLKSGTASVVCLLNNFYPREAKVQWKVDNALQSGNSQESVTEQDSKDSTYSLSSTLTLSKADYEKHKVYACEVTHQGLSSPVTKSFNRGEC
notes: mutation in both H chains; also called Ho Ab T335_07I; T335I
On to B9, for which the Ho/Con_1a is 105 % of HoCon Ab (=100).

B10: GpH7-B3 variant S337_03V/GpL16-k0 (antibody, human IgG1, kappa)
heavy: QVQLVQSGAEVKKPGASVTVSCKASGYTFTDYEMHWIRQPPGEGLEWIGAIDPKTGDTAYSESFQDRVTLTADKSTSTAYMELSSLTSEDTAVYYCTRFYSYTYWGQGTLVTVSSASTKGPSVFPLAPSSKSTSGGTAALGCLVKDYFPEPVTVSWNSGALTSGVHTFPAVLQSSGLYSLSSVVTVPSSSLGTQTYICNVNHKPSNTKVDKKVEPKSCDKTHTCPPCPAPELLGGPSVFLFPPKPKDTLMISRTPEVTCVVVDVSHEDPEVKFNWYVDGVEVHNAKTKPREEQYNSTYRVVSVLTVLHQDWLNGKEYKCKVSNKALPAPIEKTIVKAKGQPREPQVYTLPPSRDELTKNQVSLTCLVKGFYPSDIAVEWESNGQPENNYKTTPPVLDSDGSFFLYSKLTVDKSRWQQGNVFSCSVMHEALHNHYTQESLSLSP
light: DIVMTQSPLSLPVTPGEPASISCQASESLVHSNRNTYLHWYLQKPGQSPQLLIYKVSNRFSGVPDRFSGSGSGTDFTLKISRVEAEDVGVYYCSQNTHVPPTFGQGTKVEIERTVAAPSVFIFPPSDEQLKSGTASVVCLLNNFYPREAKVQWKVDNALQSGNSQESVTEQDSKDSTYSLSSTLTLSKADYEKHKVYACEVTHQGLSSPVTKSFNRGEC
notes: mutation in both H chains; also called Ho Ab S337_03V; S337V
Turning to B10, the Ho/Con_1a was 105 % of HoCon Ab (=100).

B11: GpH7-B3 variant S337_04F/GpL16-k0 (antibody, human IgG1, kappa)
heavy: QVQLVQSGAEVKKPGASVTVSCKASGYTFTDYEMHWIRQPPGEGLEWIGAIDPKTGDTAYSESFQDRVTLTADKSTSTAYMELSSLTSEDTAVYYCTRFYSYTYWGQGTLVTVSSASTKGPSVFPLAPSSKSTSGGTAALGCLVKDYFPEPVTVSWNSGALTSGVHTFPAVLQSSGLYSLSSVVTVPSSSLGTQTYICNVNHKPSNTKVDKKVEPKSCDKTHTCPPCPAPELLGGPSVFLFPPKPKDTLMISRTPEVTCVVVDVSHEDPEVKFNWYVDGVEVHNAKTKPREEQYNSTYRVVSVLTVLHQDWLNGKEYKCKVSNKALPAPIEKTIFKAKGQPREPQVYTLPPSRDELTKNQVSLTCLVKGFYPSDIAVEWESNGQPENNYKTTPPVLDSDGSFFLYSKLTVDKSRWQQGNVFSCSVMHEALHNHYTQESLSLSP
light: DIVMTQSPLSLPVTPGEPASISCQASESLVHSNRNTYLHWYLQKPGQSPQLLIYKVSNRFSGVPDRFSGSGSGTDFTLKISRVEAEDVGVYYCSQNTHVPPTFGQGTKVEIERTVAAPSVFIFPPSDEQLKSGTASVVCLLNNFYPREAKVQWKVDNALQSGNSQESVTEQDSKDSTYSLSSTLTLSKADYEKHKVYACEVTHQGLSSPVTKSFNRGEC
notes: mutation in both H chains; also called Ho Ab S337_04F; S337F
Turning to B11, the Ho/Con_1a was 105 % of HoCon Ab (=100).

(Values after patent US20180155451A1 (published 2018).)
